Data set [1] relates to A366 peptide (STING peptide substrate with alanine at 366).
Data set [2] has as its system S366 peptide (STING peptide substrate with serine 366).

In data set [1], PIM2 registered an Activity (cpm) of 1410 cpm. In data set [2], the Activity (cpm) stood at 3720 cpm and the Fold induction turned out to be 2.63 fold.

As for NEK6, the Activity (cpm) in data set [1] turned out to be 5510 cpm; in data set [2], 35600 cpm. In addition, in data set [2], the Fold induction was found to be 6.45 fold.

Take NEK7: the values for the Activity (cpm) in data set [1] and in data set [2] were 3620 cpm and 19100 cpm, respectively. Further, the Fold induction in data set [2] came out at 5.28 fold.

For the substance CK1δ, the Activity (cpm) in data set [1] came to 15600 cpm; in data set [2], 25200 cpm. In addition, in data set [2], the Fold induction was 1.62 fold.

The record behind these values is US20130039933.
